Results from paper PMC5629373.

B1: STAT5A (S5; hyperactive variant cS5): T92A (protein)
parent chain: MAGWIQAQQLQGDALRQMQVLYGQHFPIEVRHYLAQWIESQPWDAIDLDNPQDRGQATQLLEGLVQELQKKAEHQVGEDGFLLKIKLGHYATQLQNTYDRCPMELVRCIRHILYNEQRLVREANNCSSPAGVLVDAMSQKHLQINQRFEELRLITQDTENELKKLQQTQEYFIIQYQESLRIQAQFAQLGQLNPQERMSRETALQQKQVSLETWLQREAQTLQQYRVELAEKHQKTLQLLRKQQTIILDDELIQWKRRQQLAGNGGPPEGSLDVLQSWCEKLAEIIWQNRQQIRRAEHLCQQLPIPGPVEEMLAEVNATITDIISALVTSTFIIEKQPPQVLKTQTKFAATVRLLVGGKLNVHMNPPQVKATIISEQQAKSLLKNENTRNECSGEILNNCCVMEYHQATGTLSAHFRNMSLKRIKRADRRGAESVTEEKFTVLFESQFSVGSNELVFQVKTLSLPVVVIVHGSQDHNATATVLWDNAFAEPGRVPFAVPDKVLWPQLCEALNMKFKAEVQSNRGLTKENLVFLAQKLFNISSNHLEDYNSMSVSWSQFNRENLPGWNYTFWQWFDGVMEVLKKHHKPHWNDGAILGFVNKQQAHDLLINKPDGTFLLRFSDSEIGGITIAWKFDSPDRNLWNLKPFTTRDFSIRSLADRLGDLNYLIYVFPDRPKDEVFAKYYTPVLAKAVDGYVKPQIKQVVPEFVNASTDAGASATYMDQAPSPVVCPQPHYNMYPPNPDPVLDQDGEFDLDESMDVARHVEELLRRPMDSLDARLSPPAGLFTSARSSLS
B2: STAT5A (S5; hyperactive variant cS5): S5-T92A (protein)
parent chain: B1 parent chain
B3: STAT5A (S5; hyperactive variant cS5): cS5-T92A (protein)
parent chain: B1 parent chain

What was measured:
[1] = oligomer EMSA, 293T, loading adapted to STAT5 activity; conditions: glycan lost; control: constructs without T92A
[2] = immunoblot, 293T with EpoR, EPO stimulation; conditions: glycan lost; control: matching construct without T92A (S5, cS5)
[3] = pYSTAT5 immunoblot, Ba/F3 cells ± IL-3; conditions: glycan lost; control: cS5
[4] = total STAT5 immunoblot, Ba/F3; conditions: glycan lost; control: cS5
[5] = pYSTAT5 immunoblot time course after IL-3 withdrawal, Ba/F3; conditions: glycan lost; control: cS5
[6] = phospho-serine immunoblot, Ba/F3; conditions: glycan lost; control: cS5

Protein | oligomerisation [1] | other: tyrosine phosphorylation (pYSTAT5) [2] | other: tyrosine phosphorylation (pYSTAT5) [3] | expression_or_secretion [4] | other: persistence of tyrosine phosphorylation [5] | other: serine 725/779 phosphorylation [6]
B1 | no change |  |  |  |  | 
B2 |  | no change |  |  |  | 
B3 |  | no change | decreases | no change | decreases | no change
